Kd data for one substance are collected here from PMC5964024.

Assay [1] addresses R5gp120-Hi (human) (UniProt P51681). Description: flow cytometry on cells. Background: Flow cytometry measures light scatter and fluorescence of single cells or particles in a stream.
Assay [2] deals with myc-tagged human CCR5 (wildtype) (human) (UniProt P51681). Description: flow cytometry on cells.

Consider “BaL gp120-CD4-FLAG (from UniProt P01730 26-209) (ligand)”, for which the Kd (in general, a measure of binding affinity in units of concentration) in assay [1] came to 12 nM; in assay [2], 32 nM.
